Test results published in US9371393B2, “Class I anti-CEA antibodies and uses thereof” (Immunomedics, Inc., priority 2009, dated 2016).
Entries after “also recorded” stand apart in the source; their conditions may differ.

T1: NCA-95 (HeLa-CGM6/1) (Homo sapiens, UniProt P31997)
T1 construct: expressed in transfected cells; host or cells: HeLa (HeLa-CGM6/1)
T1 sequence (P31997 35-320): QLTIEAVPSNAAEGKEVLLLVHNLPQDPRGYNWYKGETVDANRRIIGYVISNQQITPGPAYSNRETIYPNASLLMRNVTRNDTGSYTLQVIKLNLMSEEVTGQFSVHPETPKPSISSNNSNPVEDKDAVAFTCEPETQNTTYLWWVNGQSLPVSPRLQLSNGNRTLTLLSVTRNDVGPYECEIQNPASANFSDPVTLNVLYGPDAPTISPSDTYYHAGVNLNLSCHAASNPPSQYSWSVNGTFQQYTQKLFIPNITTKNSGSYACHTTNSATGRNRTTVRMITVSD


Experiments:
NCA-95 (HeLa-CGM6/1) = molecular target: T1, NCA-95 (HeLa-CGM6/1); experiment: Indirect flow cytometry, HeLa-CGM6/1; type: binding; conditions: antibodies at 1/50 dilution of 1 mg/ml stocks
Method: The reactivity of antibodies was tested by flow cytometry with a Becton-Dickinson FACSCAN®. The biotinylated second antibody was directed against mouse IgG and was detected by a streptavidin/phycoerythrin conjugate. Tests were carried out with antibodies at 1/50 dilution of 1 mg/ml stocks.
The antibodies MN-3 and MN-15 were tested for recognition of HeLa cells transfected with cDNA coding for CEA (HeLa-CEA2), NCA-90 (HeLa-KNC6/S44) and NCA-95 (HeLa-CGM6/1). As a negative control, HeLa cells transfected with the plasmid pSV2-Neo (control HeLa cells, HeLa-NeoA) were used. In addition to the antibodies MN-3 and MN-15, three control antibodies were included: […]

[1] = test system: Moser binding to fibronectin; experiment: Adhesion to extracellular matrix proteins assay, Moser; type: cell-based, human
Method: (§1) Adhesion to extracellular matrix proteins assay—The assay was done using the CYTOMATRIX™ screening kit from CHEMICON® (Kit #ECM205, Temecula, Calif.). The kit contains 96-well plates with strips coated with fibronectin, vitronectin, laminin, collagen-I, or collagen-IV. Subconfluent cell cultures were used for these studies. Cells (1×10^6 cells/mol) were seeded onto coated substrate and incubated at 37° C. for 1 hour in a CO2 incubator in PBS containing Ca^2+/Mg^2+ (200 μL per well). Adherent cells were fixed and stained. The plate was washed to remove unadhered cells and stained with 100 μL per well of MTS (Cell Titer Aq 96, PROMEGA®, Madison, Wis.) for 5 minutes at room temperature. Excess stain was removed with three PBS washes. Solubilization buffer [100 μL of a 50:50 mixture of 0.1 mol/L NaH2PO4 (pH 4.5) and 50% ethanol] was added to each well. Relative attachment was determined using absorbance readings (A540 nm-A570 nm).

granulocytes = experiment: Granulocyte reactivity, whole-blood indirect fluorescent flow cytometric analysis; type: binding
Method: Hybridoma supernatants were screened for CEA reactive antibody by the ROCHE® ^125I-CEA radioimmunoassay (RIA) in 0.01 and 0.10 M NH4 acetate buffer. Positive clones were recloned. The granulocyte reactivity of CEA-reactive MAb was determined by whole-blood indirect fluorescent flow cytometric analysis (Sharkey et al. Cancer Res., 1990, 50:2823-31). Two MAb with properties similar to those of NP-2 and NP-3, designated MN-2 and MN-6, were selected for additional development.
Immunoreactivity with blood lymphocytes was determined by live-cell indirect immunofluorescence, with the use of the whole blood staining method developed for use with the ORTHO SPECTRUM® I11 flow cytometer (Ortho Diagnostic Systems, Inc., Raritan, N.J.). Tissue reactivity of the MAb was determined by immunohistologic examination performed on frozen sections and 5-μm sections cut from tissue embedded in Paraplast-II. Indirect immunofluorescence on frozen sections was performed as previously described, with MAb concentrations of 20 μg/ml (Pawlak-Byczkowska et al., Cancer Res 1989, 49:4568-77).

[2] = test system: BXPC3 binding to fibronectin; experiment: Adhesion to extracellular matrix proteins assay, BXPC3; type: cell-based, human
Method: as §1

NCA, MA, CEA = experiment: Specificity for NCA, MA and CEA; type: binding
Source text: In 1983, Primus et al. described the first panel of MAbs (NP-1, NP-2, NP-3, and NP-4) that defined NCA-cross-reactive, MA-cross-reactive, and CEA-specific epitopes on the CEA molecule (Primus et al., Cancer Res 1983, 43:686-92). […] The “ion-sensitive” determinant on CEA first was delineated by Hansen et al. (Clin Res 1971, 19:143) using unadsorbed anti-CEA polyclonal serum, and subsequently by Haskell et al. (Cancer Res 1983, 43:3857-64) with MAb. NP-2 and NP-3 react with MA and CEA but not with NCA, whereas NP-4 reacts only with CEA (Primus et al., 1983). […] The present Example describes the production and characterization of a second generation of anti-CEA antibodies, including the MN-15 Class I anti-CEA MAb.
The reagents, formulation, standards, and assay protocol of the sandwich EIA used in these studies have been described elsewhere (Hansen et al., Clin Chem 1989, 35:146-51). All assays were performed with microwells coated with NP-1, except in one experiment, in which microwells were coated with MN-15. […] After the second incubation, the amount of probe bound to CEA was determined by washing out the unbound probe, adding substrate (o-phenylenediamine/hydrogen peroxide), adding acid to stop the reaction, and quantitating the color product by reading the adsorbance at 490 nm. […]

LS174T cells = experiment: Collagen-based invasion assay, LS174T; type: cell-based, human; conditions: 10% FBS chemoattractant, 72-hour incubation
Method: Collagen-based invasion assay—The assay was done using CHEMICON® Kit (#ECM551, MILLIPORE®, Billerica, Mass.). Tumor cells at 80% confluence and were serum-starved for 18 to 24 hours before the assay was used. Cells were harvested with 5 mol of 2 mmol/L EDTA/PBS per 100-mm dish and incubated at 37° C. for 5 to 15 minutes. Cells were collected into 10 to 20 mol of quenching medium (serum-free DMEM containing 5% BSA) to inactivate trypsin/EDTA from the harvesting buffer. Cells were pelleted, resuspended in quenching medium (1×10^6 cells/mol), and appropriate antibody Fabs were added to individual cell aliquots. Cell invasion potential was determined as follows. Baseline invasion and invasion in the presence of a chemoattractant (10% FBS) were measured after a 72-hour incubation period at 37° C. in a 5% CO2 incubator. The bottom side of the collagen-coated polycarbonate membrane insert of the invasion chamber was placed in 400 μL of cell stain for 20 minutes at room temperature and washed. The dye was extracted and transferred into a 96-well microtiter plate for colorimetric measurements (A560 nm).

binding to NCA-95 (NCA-95 (HeLa-CGM6/1)) | effect on binding to fibronectin [1] | effect on binding to fibronectin [2] | Molecule | granulocyte reactivity (granulocytes) | reactivity with NCA, MA and CEA (NCA, MA, CEA) | reduction in cell invasion (LS174T cells) [%]
binds to all three antigens | not affecting the binding | not affecting the binding | MN-15: murine Class I anti-CEA MAb, IgG1 kappa, binds A1B1 domain of CEACAM5 and CEACAM6 (antibody, V domains shown) VL: DIQLTQSPAIMSASPGEKVTMTCSASSRVSYIHWYQQKSGTSPKRWIYGTSTLASGVPARFSGSGSGTSYSLTISSMEAEDAATYYCQQWSYNPPTFGAGTKLELKR VH: EVRLVESGGGLVQGPGSLRLSCAASGFALTDYYMSWVRQSPGKTLEWLGFIANKANGHTTDYSPSVKGRFTISRDNSQTILYLQMNTLRTEDSATYYCARDMGIRWNFDVWGQGTTVTVSS | granulocyte-reactive; also recorded: high granulocyte reactivity; also recorded: reacted strongly with granulocytes | reacted with normal cross-reactive antigen (NCA), MA, and CEA | –
– | – | – | MN-15 Fab′: monovalent Fab′ fragment of murine MN-15 (antibody, V domains shown) VL: DIQLTQSPAIMSASPGEKVTMTCSASSRVSYIHWYQQKSGTSPKRWIYGTSTLASGVPARFSGSGSGTSYSLTISSMEAEDAATYYCQQWSYNPPTFGAGTKLELKR VH: EVRLVESGGGLVQGPGSLRLSCAASGFALTDYYMSWVRQSPGKTLEWLGFIANKANGHTTDYSPSVKGRFTISRDNSQTILYLQMNTLRTEDSATYYCARDMGIRWNFDVWGQGTTVTVSS | – | – | 30
